Test results: article PMC9482650, “Quantitative fragmentomics allow affinity mapping of interactomes” (Nature Communications, 2022)

T1: APBA3_1, O96018
T1 sequence (O96018 389-490, limits assumed, looked up): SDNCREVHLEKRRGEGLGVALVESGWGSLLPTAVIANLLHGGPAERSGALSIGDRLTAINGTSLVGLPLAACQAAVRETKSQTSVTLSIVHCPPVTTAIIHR

T2: SHANK1, Q9Y566
T2 sequence (Q9Y566 658-767, limits assumed, looked up): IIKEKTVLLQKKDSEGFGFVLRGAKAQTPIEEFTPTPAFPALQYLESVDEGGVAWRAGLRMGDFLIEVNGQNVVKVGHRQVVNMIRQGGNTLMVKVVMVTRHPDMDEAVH

T3: ARHGAP21, Q5T5U3
T3 sequence (Q5T5U3 45-169, limits assumed, looked up): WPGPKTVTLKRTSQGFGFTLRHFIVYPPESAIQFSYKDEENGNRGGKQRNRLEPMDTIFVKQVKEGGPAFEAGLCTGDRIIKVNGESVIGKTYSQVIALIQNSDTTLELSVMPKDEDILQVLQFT

T4: TJP3_3, O95049
T4 sequence (O95049 375-456, limits assumed, looked up): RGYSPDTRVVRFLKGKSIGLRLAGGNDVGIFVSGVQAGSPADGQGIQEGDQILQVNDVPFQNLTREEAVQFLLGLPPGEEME

T5: RAPGEF6, Q8TEU7
T5 sequence (Q8TEU7 525-625, limits assumed, looked up): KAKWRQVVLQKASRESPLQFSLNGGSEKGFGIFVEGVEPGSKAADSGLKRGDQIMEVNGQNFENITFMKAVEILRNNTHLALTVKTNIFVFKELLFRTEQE

T6: LNX2_3, Q8N448
T6 sequence (Q8N448 463-564, limits assumed, looked up): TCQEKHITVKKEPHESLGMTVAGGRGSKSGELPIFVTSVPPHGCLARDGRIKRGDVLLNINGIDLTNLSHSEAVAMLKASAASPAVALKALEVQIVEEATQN

T7: FRMPD1, Q5SYB0
T7 sequence (Q5SYB0 52-145, limits assumed, looked up): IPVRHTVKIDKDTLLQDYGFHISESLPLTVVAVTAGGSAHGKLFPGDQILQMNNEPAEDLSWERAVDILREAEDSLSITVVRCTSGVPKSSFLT

T8: APBA1_1, Q02410
T8 sequence (Q02410 651-752, limits assumed, looked up): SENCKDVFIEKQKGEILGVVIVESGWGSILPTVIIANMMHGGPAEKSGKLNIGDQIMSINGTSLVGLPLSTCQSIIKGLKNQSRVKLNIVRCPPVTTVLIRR

T9: LRRC7, Q96NW7
T9 sequence (Q96NW7 1440-1537, limits assumed, looked up): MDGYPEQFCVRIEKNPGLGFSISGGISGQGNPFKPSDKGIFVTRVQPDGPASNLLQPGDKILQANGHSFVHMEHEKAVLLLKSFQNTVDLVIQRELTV

T10: DLG3_3, Q92796
T10 sequence (Q92796 374-475, limits assumed, looked up): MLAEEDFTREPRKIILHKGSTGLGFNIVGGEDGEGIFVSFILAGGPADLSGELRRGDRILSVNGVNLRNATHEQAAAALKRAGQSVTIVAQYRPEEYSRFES

T11: LIN7C, Q9NUP9
T11 sequence (Q9NUP9 88-185, limits assumed, looked up): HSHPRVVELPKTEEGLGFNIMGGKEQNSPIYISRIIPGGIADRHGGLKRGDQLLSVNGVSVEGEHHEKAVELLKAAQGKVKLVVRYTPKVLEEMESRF


Columns and labels:
Assay in all cases: holdup assay
Set-up in all cases: key: below the threshold = too weak to quantify, mostly under pKd 3.1 to 4
Conditions in all cases: plain residues with an end cap or a label only (N-terminal biotin on a linker: ado-ado)
APBA3_1, O96018 = target: T1, APBA3_1, O96018
FRMPD2_1, Q68DX3 = target: FRMPD2_1, Q68DX3
MAGI3_2, Q5TCQ9 = target: MAGI3_2, Q5TCQ9
SHANK1, Q9Y566 = target: T2, SHANK1, Q9Y566
ARHGAP21, Q5T5U3 = target: T3, ARHGAP21, Q5T5U3
PARD3_3, Q8TEW0 = target: PARD3_3, Q8TEW0
TJP3_3, O95049 = target: T4, TJP3_3, O95049
Inadl_8, Q8NI35 = target: Inadl_8, Q8NI35
RAPGEF6, Q8TEU7 = target: T5, RAPGEF6, Q8TEU7
AHNAK1, Q09666 = target: AHNAK1, Q09666
LNX2_3, Q8N448 = target: T6, LNX2_3, Q8N448
DLG2_2, Q15700 = target: DLG2_2, Q15700
NHERF4_2, Q86UT5 = target: NHERF4_2, Q86UT5
FRMPD1, Q5SYB0 = target: T7, FRMPD1, Q5SYB0
MAGI2_4, Q86UL8 = target: MAGI2_4, Q86UL8
APBA1_1, Q02410 = target: T8, APBA1_1, Q02410
PTPN3, P26045 = target: PTPN3, P26045
MAGI2_3, Q86UL8 = target: MAGI2_3, Q86UL8
LDB3, O75112 = target: LDB3, O75112
LRRC7, Q96NW7 = target: T9, LRRC7, Q96NW7
GRID2IP_1, A4D2P6 = target: GRID2IP_1, A4D2P6
DLG3_3, Q92796 = target: T10, DLG3_3, Q92796
NHERF4_1, Q86UT5-2 = target: NHERF4_1, Q86UT5-2
Inadl_2, Q8NI35 = target: Inadl_2, Q8NI35
LIN7C, Q9NUP9 = target: T11, LIN7C, Q9NUP9
PDLIM1, O00151 = target: PDLIM1, O00151
Inadl_4, Q8NI35 = target: Inadl_4, Q8NI35
Inadl_4, Q8NI35, sequence (Q8NI35 547-651): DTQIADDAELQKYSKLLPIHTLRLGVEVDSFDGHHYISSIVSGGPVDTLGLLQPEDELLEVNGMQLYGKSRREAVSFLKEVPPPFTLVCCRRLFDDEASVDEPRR

NHERF4_1, Q86UT5-2, sequence (Q86UT5 other isoform, or with tags, fused parts or gaps): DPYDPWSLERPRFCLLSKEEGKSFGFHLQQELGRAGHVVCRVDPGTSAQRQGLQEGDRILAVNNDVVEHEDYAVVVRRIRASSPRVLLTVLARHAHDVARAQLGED
DLG2_2, Q15700, sequence (Q15700 189-283): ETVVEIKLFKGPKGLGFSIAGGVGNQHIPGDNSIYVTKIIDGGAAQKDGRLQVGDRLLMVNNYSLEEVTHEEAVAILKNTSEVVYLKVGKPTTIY
Inadl_8, Q8NI35, sequence (Q8NI35 1425-1530): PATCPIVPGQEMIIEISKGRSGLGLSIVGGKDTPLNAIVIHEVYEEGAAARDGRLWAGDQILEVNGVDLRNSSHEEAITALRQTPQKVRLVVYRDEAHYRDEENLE
GRID2IP_1, A4D2P6, sequence (A4D2P6 1-87): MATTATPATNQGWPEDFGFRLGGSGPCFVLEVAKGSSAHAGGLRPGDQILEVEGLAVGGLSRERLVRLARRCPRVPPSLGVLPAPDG
MAGI2_3, Q86UL8, sequence (Q86UL8 600-682): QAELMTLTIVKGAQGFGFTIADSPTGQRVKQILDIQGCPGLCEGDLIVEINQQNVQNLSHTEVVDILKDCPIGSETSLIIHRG
MAGI3_2, Q5TCQ9, sequence (Q5TCQ9 398-503): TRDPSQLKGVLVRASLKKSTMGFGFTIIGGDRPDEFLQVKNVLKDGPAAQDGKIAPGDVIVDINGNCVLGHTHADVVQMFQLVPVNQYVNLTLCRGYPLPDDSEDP
LDB3, O75112, sequence (O75112 1-94): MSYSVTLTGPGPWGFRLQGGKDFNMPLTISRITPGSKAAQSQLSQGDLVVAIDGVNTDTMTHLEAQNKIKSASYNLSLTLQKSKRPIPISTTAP
PDLIM1, O00151, sequence (O00151 1-87): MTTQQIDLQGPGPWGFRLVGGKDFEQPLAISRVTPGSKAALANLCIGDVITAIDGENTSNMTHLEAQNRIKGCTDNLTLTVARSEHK
NHERF4_2, Q86UT5, sequence (Q86UT5 220-308): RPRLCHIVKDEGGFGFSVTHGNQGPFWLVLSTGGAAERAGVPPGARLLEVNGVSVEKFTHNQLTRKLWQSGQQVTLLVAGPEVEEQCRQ
PTPN3, P26045, sequence (P26045 505-587): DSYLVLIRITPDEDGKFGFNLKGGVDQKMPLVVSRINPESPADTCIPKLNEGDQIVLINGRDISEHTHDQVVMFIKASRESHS
MAGI2_4, Q86UL8, sequence (Q86UL8 772-865): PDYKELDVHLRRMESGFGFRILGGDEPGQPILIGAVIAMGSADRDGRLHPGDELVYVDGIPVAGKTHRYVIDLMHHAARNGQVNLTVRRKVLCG
PARD3_3, Q8TEW0, sequence (Q8TEW0 582-685): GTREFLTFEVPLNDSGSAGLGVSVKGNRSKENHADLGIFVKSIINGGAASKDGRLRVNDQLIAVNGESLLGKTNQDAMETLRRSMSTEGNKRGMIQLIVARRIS
Inadl_2, Q8NI35, sequence (Q8NI35 238-335): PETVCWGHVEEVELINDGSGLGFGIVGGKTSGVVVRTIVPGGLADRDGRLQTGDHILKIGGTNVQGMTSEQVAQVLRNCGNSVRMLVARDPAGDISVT
AHNAK1, Q09666, sequence (Q09666 4-100): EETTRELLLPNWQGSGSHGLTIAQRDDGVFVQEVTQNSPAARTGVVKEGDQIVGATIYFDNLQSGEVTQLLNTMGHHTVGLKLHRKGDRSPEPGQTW
FRMPD2_1, Q68DX3, sequence (Q68DX3 770-861): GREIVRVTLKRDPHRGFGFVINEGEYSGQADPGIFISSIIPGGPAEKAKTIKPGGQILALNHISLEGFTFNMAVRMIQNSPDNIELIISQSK

Row | Binder | pKd (APBA3_1, O96018) | pKd (FRMPD2_1, Q68DX3) | pKd (MAGI3_2, Q5TCQ9) | pKd (SHANK1, Q9Y566) | pKd (ARHGAP21, Q5T5U3) | pKd (PARD3_3, Q8TEW0) | pKd (TJP3_3, O95049) | pKd (Inadl_8, Q8NI35) | pKd (RAPGEF6, Q8TEU7) | pKd (AHNAK1, Q09666) | pKd (LNX2_3, Q8N448) | pKd (DLG2_2, Q15700) | pKd (NHERF4_2, Q86UT5) | pKd (FRMPD1, Q5SYB0) | pKd (MAGI2_4, Q86UL8) | pKd (APBA1_1, Q02410) | pKd (PTPN3, P26045) | pKd (MAGI2_3, Q86UL8) | pKd (LDB3, O75112) | pKd (LRRC7, Q96NW7) | other results
1 | RKPKPSSSCC [RAB9A, P51151] | below the threshold | below the threshold | below the threshold | below the threshold | below the threshold | below the threshold | below the threshold | below the threshold | below the threshold | below the threshold | below the threshold | below the threshold | below the threshold | below the threshold | below the threshold | below the threshold | 3.83 | below the threshold | 3.51 | below the threshold | pKd (GRID2IP_1, A4D2P6): below the threshold; pKd (DLG3_3, Q92796): below the threshold; pKd (NHERF4_1, Q86UT5-2): 3.81; pKd (Inadl_2, Q8NI35): below the threshold; pKd (LIN7C, Q9NUP9): 3.69; pKd (PDLIM1, O00151): below the threshold; pKd (Inadl_4, Q8NI35): below the threshold
2 | LKVPPEERLI [CRB2, Q5IJ48] | below the threshold | below the threshold | below the threshold | below the threshold | 3.89 | 3.85 | below the threshold | below the threshold | below the threshold | below the threshold | below the threshold | below the threshold | below the threshold | below the threshold | below the threshold | below the threshold | below the threshold | below the threshold | below the threshold | below the threshold | pKd (GRID2IP_1, A4D2P6): below the threshold; pKd (DLG3_3, Q92796): below the threshold; pKd (NHERF4_1, Q86UT5-2): below the threshold; pKd (Inadl_2, Q8NI35): below the threshold; pKd (LIN7C, Q9NUP9): below the threshold; pKd (PDLIM1, O00151): below the threshold; pKd (Inadl_4, Q8NI35): below the threshold
3 | YRLAQESGLV [ABCC6, O95255] | below the threshold | below the threshold | below the threshold | below the threshold | 4.1 | below the threshold | below the threshold | below the threshold | below the threshold | below the threshold | below the threshold | below the threshold | below the threshold | below the threshold | 3.89 | below the threshold | 3.87 | below the threshold | below the threshold | below the threshold | pKd (GRID2IP_1, A4D2P6): below the threshold; pKd (DLG3_3, Q92796): below the threshold; pKd (NHERF4_1, Q86UT5-2): 3.51; pKd (Inadl_2, Q8NI35): below the threshold; pKd (LIN7C, Q9NUP9): 4.01; pKd (PDLIM1, O00151): below the threshold; pKd (Inadl_4, Q8NI35): below the threshold

Second part, led by results:

Row | pKd (APBA3_1, O96018) | pKd (FRMPD2_1, Q68DX3) | pKd (MAGI3_2, Q5TCQ9) | pKd (SHANK1, Q9Y566) | pKd (ARHGAP21, Q5T5U3) | pKd (PARD3_3, Q8TEW0) | pKd (TJP3_3, O95049) | pKd (Inadl_8, Q8NI35) | pKd (RAPGEF6, Q8TEU7) | pKd (AHNAK1, Q09666) | pKd (LNX2_3, Q8N448) | pKd (DLG2_2, Q15700) | pKd (NHERF4_2, Q86UT5) | pKd (FRMPD1, Q5SYB0) | pKd (MAGI2_4, Q86UL8) | pKd (APBA1_1, Q02410) | pKd (PTPN3, P26045) | pKd (MAGI2_3, Q86UL8) | pKd (LDB3, O75112) | pKd (LRRC7, Q96NW7) | Binder | other results
4 | below the threshold | below the threshold | below the threshold | below the threshold | below the threshold | below the threshold | below the threshold | below the threshold | below the threshold | below the threshold | below the threshold | 4.06 | below the threshold | below the threshold | 3.52 | below the threshold | 5.22 | below the threshold | 3.65 | below the threshold | TASPAKETSF [SLC2A7, Q6PXP3] | pKd (GRID2IP_1, A4D2P6): below the threshold; pKd (DLG3_3, Q92796): below the threshold; pKd (NHERF4_1, Q86UT5-2): 4; pKd (Inadl_2, Q8NI35): below the threshold; pKd (LIN7C, Q9NUP9): 4.36; pKd (PDLIM1, O00151): below the threshold; pKd (Inadl_4, Q8NI35): below the threshold
5 | below the threshold | below the threshold | 3.79 | below the threshold | below the threshold | 4.35 | below the threshold | below the threshold | below the threshold | below the threshold | below the threshold | 4.07 | below the threshold | below the threshold | below the threshold | below the threshold | 4.59 | below the threshold | below the threshold | below the threshold | ETQVTAETVI [TMEM225B, P0DP42] | pKd (GRID2IP_1, A4D2P6): below the threshold; pKd (DLG3_3, Q92796): below the threshold; pKd (NHERF4_1, Q86UT5-2): below the threshold; pKd (Inadl_2, Q8NI35): below the threshold; pKd (LIN7C, Q9NUP9): 4.07; pKd (PDLIM1, O00151): below the threshold; pKd (Inadl_4, Q8NI35): below the threshold
